Consider one substance from patent US20190367626A1.

In experiment [1] the target is TRAILshort (UniProt P50591). Briefly: flow cytometry of 293T cells transfected with WT TRAILshort, isotype control staining. For orientation: Flow cytometry measures light scatter and fluorescence of single cells or particles in a stream.
Experiment [2] addresses P76A TRAILshort. The experiment can be described thus: flow cytometry of 293T cells transfected with P76A TRAILshort, isotype control staining.

TRAILshort, sequence (P50591 other isoform, or with tags, fused parts or gaps): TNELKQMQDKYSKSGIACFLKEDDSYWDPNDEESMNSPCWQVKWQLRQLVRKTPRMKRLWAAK

For the substance “C555 labeled anti-Ig3 Isotype control (antibody)”, the values for the percent of cells in the gate in experiment [1] and in experiment [2] were 3.2% and 2.2%, respectively.
